Test system: T1, Cc1cc(=O)oc2cc(NC(=O)[C@H](CCCNC(=N)N)NC(=O)[C@H](C)NC(=O)[C@H](CCC(N)=O)NC(=O)OC(C)(C)C)ccc12
T1 construct: purchased R&D Systems 4776-SE-010
Assay: Km determination of fluorogenic substrate with hepsin
Format: biochemical, human
Description: In black 384 well plates (Corning #3575), 12.5 nM HGFA was mixed with various amounts of Boc-QLR-AMC and 1 nM matriptase and 0.3 nM hepsin were mixed with various amounts of Boc-QAR-AMC. Changes in fluorescence (excitation at 380 nm and emission at 460 nn) were measured at room temperature over time in a Biotek Synergy 2 plate reader (Winnoski, Vt.). Using plots of the mean reaction velocity versus substrate concentration and the Michaelis-Menten enzyme kinetics equation within GraphPad Prism version 6.04 for Windows (GraphPad Software, San Diego, Calif., www.graphpad.com), the reaction Vmax and subsequent Km for each of the substrates were determined.

hepsin (Homo sapiens), sequence (chain, as listed by the source): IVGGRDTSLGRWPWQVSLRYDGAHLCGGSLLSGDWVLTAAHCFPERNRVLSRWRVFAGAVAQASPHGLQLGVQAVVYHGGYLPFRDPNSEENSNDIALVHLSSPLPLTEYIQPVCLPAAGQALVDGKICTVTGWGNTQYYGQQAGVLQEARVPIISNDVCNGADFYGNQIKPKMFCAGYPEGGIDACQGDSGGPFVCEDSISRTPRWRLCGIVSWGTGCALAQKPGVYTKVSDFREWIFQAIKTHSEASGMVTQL

hepsin (Homo sapiens) gave a Km of 156 µM.

— US11130780B2, “Inhibitors of growth factor activation enzymes” (Washington University, priority 2015, dated 2021)
